Molecular target: BclA N-terminal 35 amino acids fused to eGFP (Bacillus anthracis) (UniProt Q81JD7)
Experiment: FRET or BRET

## BxpB-mCherry fusion (from UniProt S5W424 1-167) (natural protein)
  fold decrease of the eGFP signal (FRET), against BclA NTD-eGFP alone: 2.1 fold
  percent of FRET positive spores: 14.8%

Reference: article PMC3044595
